# Laboratory results: IntAct's records for PubMed 33762578
# B1: E3 ubiquitin-protein ligase NEDD4 (Homo sapiens), P46934-3 (parent)
# chain: MAQSLRLHFAARRSNTYPLSETSGDDLDSHVHMCFKRPTRISTSNVVQMKLTPRQTALAPLIKENVQSQERSSVPSSENVNKKSSCLQISLQPTRYSGYLQSSNVLADSDDASFTCILKDGIYSSAVVDNELNAVNDGHLVSSPAICSGSLSNFSTSDNGSYSSNGSDFGSCASITSGGSYTNSVISDSSSYTFPPSDDTFLGGNLPSDSTSNRSVPNRNTTPCEIFSRSTSTDPFVQDDLEHGLEIMKLPVSRNTKIPLKRYSSLVIFPRSPSTTRPTSPTSLCTLLSKGSYQTSHQFIISPSEIAHNEDGTSAKGFLSTAVNGLRLSKTICTPGEVRDIRPLHRKGSLQKKIVLSNNTPRQTVCEKSSEGYSCVSVHFTQRKAATLDCETTNGDCKPEMSEIKLNSDSEYIKLMHRTSACLPSSQNVDCQININGELERPHSQMNKNHGILRRSISLGGAYPNISCLSSLKHNCSKGGPSQLLIKFASGNEGKVDNLSRDSNRDCTNELSNSCKPGWVVLDQPDAACHLQQQQEPSPLPPGWEERQDILGRTYYVNHESRRTQWKRPTPQDNLTDAENGNIQLQAQRAFTTRRQISEETESVDNRESSENWEIIREDEATMYSNQAFPSPPPSSNLDVPTHLAEELNARLTIFGNSAVSQPASSSNHSSRRGSLQAYTFEEQPTLPVLLPTSSGLPPGWEEKQDERGRSYYVDHNSRTTTWTKPTVQATVETSQLTSSQSSAGPQSQASTSDSGQQVTQPSEIEQGFLPKGWEVRHAPNGRPFFIDHNTKTTTWEDPRLKIPAHLRGKTSLDTSNDLGPLPPGWEERTHTDGRIFYINHNIKRTQWEDPRLENVAITGPAVPYSRDYKRKYEFFRRKLKKQNDIPNKFEMKLRRATVLEDSYRRIMGVKRADFLKARLWIEFDGEKGLDYGGVAREWFFLISKEMFNPYYGLFEYSATDNYTLQINPNSGLCNEDHLSYFKFIGRVAGMAVYHGKLLDGFFIRPFYKMMLHKPITLHDMESVDSEYYNSLRWILENDPTELDLRFIIDEELFGQTHQHELKNGGSEIVVTNKNKKEYIYLVIQWRFVNRIQKQMAAFKEGFFELIPQDLIKIFDENELELLMCGLGDVDVNDWREHTKYKNGYSANHQVIQWFWKAVLMMDSEKRIRLLQFVTGTSRVPMNGFAELYGSNGPQSFTVEQWGTPEKLPRAHTCFNRLDLPPYESFEELWDKLQMAIENTQGFDGVD
# Variants of: B1
# Settings: with spike_sars2 S
row,Variant,effect of a mutation on the interaction
1,I843R,increasing interaction strength
2,R877Q,increasing interaction strength
